In patent publication US20210017569A1, “Ligase Screening Assay” (UNIVERSITY OF DUNDEE, priority 2018, published 2021):

Target: T1, GST-MYCBP2cat (Homo sapiens, UniProt O75592)
T1 construct: GST-tagged MYCBP2cat (Ser4378-Phe4640), wt and mutants, were expressed at 16° C. overnight; made in house; host or cells: E. coli BL21-DE3
T1 sequence (O75592 4416-4678 limits assumed): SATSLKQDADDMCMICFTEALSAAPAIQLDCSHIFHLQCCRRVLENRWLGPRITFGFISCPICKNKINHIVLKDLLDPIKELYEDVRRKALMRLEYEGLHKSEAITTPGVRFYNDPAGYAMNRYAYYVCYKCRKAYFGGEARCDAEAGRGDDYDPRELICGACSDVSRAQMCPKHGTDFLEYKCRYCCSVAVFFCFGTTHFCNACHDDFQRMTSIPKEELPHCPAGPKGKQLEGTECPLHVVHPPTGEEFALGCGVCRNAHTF
Assay: Multiple turnover E2 discharge panel (threonine discharge)
Assay type: biochemical
Details: 17 E2s tested
Experimental: E2s were screened for threonine discharge activity with GST-MYCBP2cat as described for the amino acid panel. E2s were also incubated in the presence of threonine but in the absence of GST-MYCBP2cat. These samples provided a reference to distinguish between intrinsic E2˜Ub instability and E3-dependent discharge.

B1: UBE2E1: E2 conjugating enzyme (protein, UniProt P51965 2-193, looked up)
Ubiquitin-conjugating enzyme …: SDDDSRASTSSSSSSSSNQQTEKETNTPKKKESKVSMSKNSKLLSTSAKRIQKELADITLDPPPNCSAGPKGDNIYEWRSTILGPPGSVYEGGVFFLDITFTPEYPFKPPKVTFRTRIYHCNINSQGVICLDILKDNWSPALTISKVLLSICSLLTDCNPADPLVGSIATQYMTNRAEHDRMARQWTKRYAT
  E2 partner activity with MYCBP2cat: robust activity
